Assay [1] has as its target PKR2 stably expressed in Chinese Hamster Ovary cells (CHO-PKR2). In words: cell-based or functional assay.
Another assay concerns the target T1, mouse PK2 receptor (mouse, UniProt Q8K458 1-381).
T1 construct: G-protein coupled receptor; also called PKR2; mouse PKR2
The assay is described as follows: PK2 receptor binding assay with radioiodinated ligand (FIG. 11). The source says:
An exemplary assay for determining binding of detectably labeled PK2, PK1 or PK2/PK1 chimera to PK2 receptor or PK1 receptor is the radioligand filter binding assay described in Li et al. Molecular Pharmacology 59:692-698 (2001)). […] A variety of other low- and high-throughput assays suitable for detecting selective binding interactions between a receptor and a ligand are known in the art. Such assays include, for example, fluorescence correlation spectroscopy (FCS) and scintillation proximity assays (SPA) reviewed in Major, J. Receptor and Signal Transduction Res. 15:595-607 (1995); and in Sterrer et al., J. Receptor and Signal Transduction Res. 17:511-520 (1997)). Binding assays can be performed in any suitable assay format including, for example, cell preparations such as whole cells or membranes that contain PK2 receptor or PK1 receptor, or substantially purified PK2 receptor polypeptide or PK1 receptor, either in solution or bound to a solid support.

T1 sequence (Q8K458 whole entry): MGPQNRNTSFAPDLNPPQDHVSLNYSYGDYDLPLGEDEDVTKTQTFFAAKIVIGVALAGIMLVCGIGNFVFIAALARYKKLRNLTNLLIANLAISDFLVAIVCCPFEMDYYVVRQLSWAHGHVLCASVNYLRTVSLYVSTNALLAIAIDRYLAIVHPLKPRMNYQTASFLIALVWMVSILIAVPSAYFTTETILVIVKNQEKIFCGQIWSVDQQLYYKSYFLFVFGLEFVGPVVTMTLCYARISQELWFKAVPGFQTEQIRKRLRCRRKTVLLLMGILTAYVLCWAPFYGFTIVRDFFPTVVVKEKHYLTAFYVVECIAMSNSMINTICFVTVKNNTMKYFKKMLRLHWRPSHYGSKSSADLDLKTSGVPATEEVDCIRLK

For “purified recombinant mouse PK2 (from UniProt Q9QXU7 27-128) (ligand)”, in assay [1], the EC50, calcium mobilization is 7.3 nM and the fold stimulation of CLOCK:BMAL1-mediated transcription of the 2.8 kb PK2 promoter (luciferase) came out at 4 fold.

B1: 125I-human PK2 (iodinated human prokineticin 2) (ligand)
chain: AVITGACDKDSQCGGGMCCAVSIWVKSIRICTPMGKLGDSCHPLTRKVPFFGRRMHHTCPCLPGLACLRTSFNRFICLAQK
modifications: radioiodinated with 125I (residue not stated for this assay)
notes: also called iodinated PK2
In turn, B1 gave a Kd in the assay with mouse PK2 receptor of approximately 1 nM.

In general, Kd refers to the constant that tells how readily two partners part at equilibrium. A low value points to higher affinity.
